Source: patent publication US10266842B2 (priority 2013, dated 2019)

Tested on: Fusarium graminearum (Strain IFA 65)
Format: cell-based

Row | Molecule | IC50 (Fusarium graminearum spores, 24 h at room temperature, from dose-effect relationship (FIG. 8), read-out: concentration in which a half-maximum inhibition (of spore germination) occurred) | inhibition of spore germination (100 μM, compared to a water control (FIG. 9))
1 | LserFCP1-77: 77-residue polypeptide of SEQ ID No. 1 (Lucilia sericata), prepared by solid-phase synthesis or recombinantly in E. coli (protein, listed as Lucilia sericata) QHGYGAGGHGQQGYGSQHSSHAPQGGHVVREQGFSGHVHEQQAGHHHEAGHHEQAGHHEQSGQQVHGQGHGYKSHGY | 1600 nM | 
2 | LserFCP1-73: 73-residue polypeptide of SEQ ID No. 2; LserFCP1-77 lacking the last four residues, made recombinantly in E. coli (protein, listed as Lucilia sericata) QHGYGAGGHGQQGYGSQHSSHAPQGGHVVREQGFSGHVHEQQAGHHHEAGHHEQAGHHEQSGQQVHGQGHGYK |  | complete inhibition
